Assay results: article PMC11574045, “A cofactor-induced repressive type of transcription factor condensation can be induced by synthetic peptides to suppress tumorigenesis” (The EMBO Journal, 2024)

Test system: HEK293FT cells transfected with TF library
Assay: Screening of TF condensates based on fluorescent puncta
Type: cell-based
Details: Figure 1B numerical data; TF library screen, one value per transcriptional factor
Procedure, shortened: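 Condensate formation is scored as Alexa 488-labelled puncta after Flag- or GAL4-tag immunostaining of fixed HEK293FT cells expressing individual TFs, with a 12 h glucose-free or glucose-containing culture preceding fixation.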

| Molecule | Z score of condensed fraction |
| --- | --- |
| ZNF550 (protein, UniProt Q7Z398 1-422, looked up) Zinc finger protein 550: MAETKDAAQMLVTFKDVAVTFTREEWRQLDLAQRTLYREVMLETCGLLVSLGHRVPKPELVHLLEHGQELWIVKRGLSHATCAGDRAQVHTREPTTYPPVLSERAFLRGSLTLESSTSSDSRLGRARDEEGLLEMQKGKVTPETDLHKETHLGKVSLEGEGLGTDDGLHSRALQEWLSADVLHECDSQQPGKDALIHAGTNPYKCKQCGKGFNRKWYLVRHQRVHTGMKPYECNACGKAFSQSSTLIRHYLIHTGEKPYKCLECGKAFKRRSYLMQHHPIHTGEKPYECSQCRKAFTHRSTFIRHNRTHTGEKPFECKECEKAFSNRAHLIQHYIIHTGEKPYDCMACGKAFRCSSELIQHQRIHTGEKPYECTQCGKAFHRSTYLIQHSVIHTGEMPYKCIECGKAFKRRSHLLQHQRVHT | -0.5599 |
| ZNF501 (protein, UniProt Q96CX3 1-271, looked up) Zinc finger protein 501: MNSSQISLRMKHGRVNMQKKPSKCSECGKFFTQRSSLTQHQRIHRGEKPYVCSECGSCFRKQSNLTQHLRIHTGEKPYKCNECEKAFQTKAILVQHLRIHTGEKPYKCNECGKAFCQSPSLIKHQRIHTGEKPYKCTECGKAFSQSICLTRHQRSHSGDKPFKCNECGKAFNQSACLMQHQRIHSGEKPYTCTECGKAFTQNSSLVEHERTHTGEKLYKCSECEKTFRKQAHLSEHYRIHTGEKPYECVGCGKSFRHSSALLRHQRLHAGE | -1.032 |
| ZNF488 (protein, UniProt Q96MN9 1-340, looked up) Zinc finger protein 488: MPEWPPCLSVAPALVITMAAGKGAPLSPSAENRWRLSEPELGRGCKPVLLEKTNRLGPEAAVGRAGRDVGSAELALLVAPGKPRPGKPLPPKTRGEQRQSAFTELPRMKDRQVDAQAQEREHDDPTGQPGAPQLTQNIPRGPAGSKVFSVWPSGARSEQRSAFSKPTKRPAERPELTSVFPAGESADALGELSGLLNTTDLACWGRLSTPKLLVGDLWNLQALPQNAPLCSTFLGAPTLWLEHTQAQVPPPSSSSTTSWALLPPTLTSLGLSTQNWCAKCNLSFRLTSDLVFHMRSHHKKEHAGPDPHSQKRREEALACPVCQEHFRERHHLSRHMTSHS | -0.1473 |
| CCNH (protein, UniProt P51946 1-323, looked up) Cyclin-H: MYHNSSQKRHWTFSSEEQLARLRADANRKFRCKAVANGKVLPNDPVFLEPHEEMTLCKYYEKRLLEFCSVFKPAMPRSVVGTACMYFKRFYLNNSVMEYHPRIIMLTCAFLACKVDEFNVSSPQFVGNLRESPLGQEKALEQILEYELLLIQQLNFHLIVHNPYRPFEGFLIDLKTRYPILENPEILRKTADDFLNRIALTDAYLLYTPSQIALTAILSSASRAGITMESYLSESLMLKENRTCLSQLLDIMKSMRNLVKKYEPPRSEEVAVLKQKLERCHSAELALNVITKKRKGYEDDDYVSKKSKHEEEEWTDDDLVESL | -0.9342 |
| ZNF512 (protein, UniProt Q96ME7 1-567, looked up) Zinc finger protein 512: MSSRLGAVPATSGPTTFKQQRSTRIVGAKNSRTQCSIKDNSFQYTIPHDDSLSGSSSASSCEPVSDFPASFRKSTYWMKMRRIKPAATSHVEGSGGVSAKGKRKPRQEEDEDYREFPQKKHKLYGRKQRPKTQPNPKSQARRIRKEPPVYAAGSLEEQWYLEIVDKGSVSCPTCQAVGRKTIEGLKKHMENCKQEMFTCHHCGKQLRSLAGMKYHVMANHNSLPILKAGDEIDEPSERERLRTVLKRLGKLRCMRESCSSSFTSIMGYLYHVRKCGKGAAELEKMTLKCHHCGKPYRSKAGLAYHLRSEHGPISFFPESGQPECLKEMNLESKSGGRVQRRSAKIAVYHLQELASAELAKEWPKRKVLQDLVPDDRKLKYTRPGLPTFSQEVLHKWKTDIKKYHRIQCPNQGCEAVYSSVSGLKAHLGSCTLGNFVAGKYKCLLCQKEFVSESGVKYHINSVHAEDWFVVNPTTTKSFEKLMKIKQRQQEEEKRRQQHRSRRSLRRRQQPGIELPETELSLRVGKDQRRNNEELVVSASCKEPEQEPVPAQFQKVKPPKTNHKRGRK | -0.5967 |
